Test results from patent US20240092930A1 (MABWELL SHANGHAI BIOSCIENCE, published 2024).
Changes are numbered by the printed parent chain.

T1: recombinant human Trop-2-his protein (ACCESSION NO.: NP_002344.2, AA 1-274) (human, UniProt P09758 27-274)
T1 construct: range 27-274; also called recombinant human Trop-2 protein; recombinant human Trop-2 extracellular domain; not shown: his tag
T1 sequence (looked up): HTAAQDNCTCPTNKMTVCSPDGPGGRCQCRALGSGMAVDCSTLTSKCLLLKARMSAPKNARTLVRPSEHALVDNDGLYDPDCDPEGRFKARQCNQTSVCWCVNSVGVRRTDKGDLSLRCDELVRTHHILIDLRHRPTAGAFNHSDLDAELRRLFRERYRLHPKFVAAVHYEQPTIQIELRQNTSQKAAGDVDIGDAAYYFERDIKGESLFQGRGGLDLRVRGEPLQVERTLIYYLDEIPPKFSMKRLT

T2: human Trop-2 on the surface of cells (CHO/Trop-2 cells; BxPC-3 cells; NCI-N87 cells) (human, UniProt P09758 27-323)
T2 sequence (looked up): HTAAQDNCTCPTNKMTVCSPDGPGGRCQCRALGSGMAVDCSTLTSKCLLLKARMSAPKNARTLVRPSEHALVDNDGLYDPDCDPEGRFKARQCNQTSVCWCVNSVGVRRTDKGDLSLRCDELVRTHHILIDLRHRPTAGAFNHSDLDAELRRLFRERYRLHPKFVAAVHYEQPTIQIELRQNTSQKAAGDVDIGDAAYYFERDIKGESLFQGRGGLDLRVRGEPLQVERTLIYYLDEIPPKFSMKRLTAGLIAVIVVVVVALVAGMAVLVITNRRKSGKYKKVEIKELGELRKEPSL

B1: chimeric antibody ch23-12 (antibody, human IgG1, V domains shown)
VH: QVQLQQPGAELVKPGASVKLSCKADGYIFTSYWMHWVKQRPGQGLEWIGEITPSDNYTSYNQKFKGKATLTVDKSSSTAYMQLSSLTSEDSAVYYCTRGHGNYVSFDYWGQGTTLTVSS
VL: DIQMTQITSSLSASLGDRVTITCRASQDISNYLNWYQQKPDGTVKLLIYYTSRLHSGVPSRFSGSGSGTDYSLTISNLEQEDIATYFCQQGYTLPPYTFGGGTKLEIK
B2: chimeric antibody ch11-4 (antibody, human IgG1, V domains shown)
VH: QVQLQQPGAELVRPGASVNLSCKASGYTFTSYWINWVKQRPGQGLEWIGNIYPSNSYTNYNQKFKDTATLTVDKSSSTAYMQLSSPTSEDSAVYFCSSYRSDGFAYWGQGTLVTVSA
VL: DILLTQSPAILSVSPGEKVSFSCRASQNIGTSIHWYQQRTNGSPRLLIEFASESISGIPSRFSGSGSGTDFTLTINSVESEDIADYYCQQSNSWPFTFGGGTKLEIK
B3: chimeric antibody ch3-11 (antibody, human IgG1, V domains shown)
VH: QVQLQQPGAELVKPGSSVKLSCKASGYTFTSYWMYWVKQRPGQGLEWIGEINPSNGRTNYNEKFKSKATLTVDKSSSTAYMQFSSLTSEDSAVYYCTREGHNYDGSLGAMDHWGQGTSVTVSS
VL: DVVVTQTPLSLPVSFGDQVSISCRSSQSLTNSYGNTFLSWYLHKPGQSPQLLLYGISNRFSGVPDRFSGSGSGTDFTLKINTIKPEDLGMYYCFQSTHQPYTFGGGTKLEIK
B4: chimeric antibody ch17-1 (antibody, human IgG1, V domains shown)
VH: EVKLVESGGVLVKPGGSLKLSCAASGFTFSDSAMSWVRQTPEKRLEWVASISRGDDTYYPDSVKGRITISRDFARNILYLQMTSLRSEDTAMYYCTRDRFGFAYWGQGTLVTVSA
VL: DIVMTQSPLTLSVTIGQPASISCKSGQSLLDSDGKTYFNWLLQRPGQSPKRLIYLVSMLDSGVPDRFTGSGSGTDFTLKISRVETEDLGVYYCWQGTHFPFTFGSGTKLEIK
B5: h11-4-14 (antibody, human IgG1, kappa, name in Kabat numbering, V domains shown)
VH: EVQLVQSGAEVKKPGASVKVSCKASGYTFTSYWINWVRQAPGQGLEWMGNIYPSNSYTNYNQKFKDRVTMTRDTSTSTVYMELSSLRSEDTAVYYCSSYRSEGFAYWGQGTLVTVSS
VL: EIVLTQSPATLSLSPGERATLSCRASQNIGTSISWYQQKPGQAPRLLIEFASESISGIPARFSGSGSGTDFTLTISSLEPEDFAVYYCQQSNSWPFTFGGGTKVEIKR
B6: h11-4-15 (antibody, human IgG1, kappa, name in Kabat numbering, V domains shown)
VH: B5 VH with E102G
VL: B5 VL
B7: h11-4-18 (antibody, human IgG1, kappa, name in Kabat numbering, V domains shown)
VH: B5 VH
VL: B5 VL with S34A
B8: h11-4-16 (antibody, human IgG1, kappa, name in Kabat numbering, V domains shown)
VH: B5 VH with E102D, G103A
VL: B5 VL
B9: h11-4-19 (antibody, human IgG1, kappa, name in Kabat numbering, V domains shown)
VH: B5 VH with E102G
VL: B5 VL with S34A
B10: h11-4-20 (antibody, human IgG1, kappa, name in Kabat numbering, V domains shown)
VH: B5 VH with E102D, G103A
VL: B5 VL with S34A
B11: h11-4-17 (antibody, human IgG1, kappa, name in Kabat numbering, V domains shown)
VH: B5 VH with E102D
VL: B5 VL with S34A

target: T1, recombinant human Trop-2-his protein …; assay: BLI, antibody on AHC sensor, Trop-2-his 60 nM
Experimental: (§1) 5-6 days after cell transfection, culture supernatants were purified through ProA affinity chromatography column to obtain different humanized antibodies. Affinities of the obtained antibodies were determined by an assay including capturing Fc fragments of the antibodies with anti-human IgG Fc capture (AHC) biosensors using Octet QKe system instrument from Fortebio. For the assay, each of the humanized antibodies and control antibody Sacituzumab was diluted to 4 μg/ml in PBS, and was allowed to flow through the surface of an AHC biosensor (Cat.: 18-0015, PALL) for 120 s. Recombinant human Trop-2-his protein (ACCESSION NO.: NP_002344.2, AA 1-274) was used as a mobile phase, and its concentration was 60 nM. The binding time was 100 s and the dissociation time was 300 s. When the assay was finished, data from which the response values of blank control had been deducted were fitted to a 1:1 Langmuir binding model using software, and then kinetic constants for antigen-antibody binding were calculated.
Affinities of the antibodies obtained from the combinations of mutants of murine antibody 23-12, chimeric antibody ch23-12 and control antibody Sacituzumab to recombinant human Trop-2-his protein were determined by ForteBijo (Table 5).

B1 gave a Kd of 0.715 nM.

target: T1, recombinant human Trop-2-his protein …; assay: ELISA, coated Trop-2-his 0.2 µg/ml
Experimental: Plates were coated with recombinant human Trop-2-his protein (ACCESSION NO.: NP_002344.2, AA 1-274) at a concentration of 0.2 μg/ml overnight at 4° C. and then blocked with 5% BSA for 60 min in a constant temperature incubator at 37° C. Chimeric antibodies ch3-11, ch4-3, ch17-1, ch11-4, and ch23-12 and control antibody Sacituzumab (serial dilutions of 8 concentrations in total obtained through 3-fold serially diluting a solution with an initial concentration of 2 μg/ml) were added into the plates which were then incubated in a constant temperature incubator at 37° C. for 60 min. The plates were washed with PBST 4 times, and 1:5000 dilution of HRP-anti-human Fc (Cat.: 109-035-098, Jackson ImmunoResearch) was added into the plates for reaction for 45 min. TMB (Cat.: ME142, GalaxyBio, Beijing) substrate was added for color development for 15 min, and then 2M HCl was added to stop reaction. Absorbances at 450 nm and at 630 nm (as reference wavelength) were read, and A450 nm-630 nm values of the wells in the plates were recorded.

In order of falling EC50:
1. B1  0.458 nM
2. B4  0.328 nM
3. B3  0.315 nM
4. B2  0.237 nM

target: T1, recombinant human Trop-2-his protein …; assay: BLI, naked antibody on AHC sensor, Trop-2-his 60 nM, 300 s binding
Experimental: Affinities of the antibodies were determined by an assay including capturing Fc fragments of the antibodies with anti-human IgG Fc capture (AHC) biosensors using Octet QKe system instrument from Fortebio.
For the assay, SN38-labeled antibodies prepared as described above: h23-12-SN38, ch4-3-SN38, ch11-4-SN38, and positive control antibody Sacituzumab-SN38, as well as naked antibodies h23-12, ch4-3, ch11-4, and positive control antibody Sacituzumab were diluted to 4 μg/ml with PBS and allowed to flow through the surface of an AHC biosensor (Cat.: 18-0015, PALL) for 120 s. Recombinant human Trop-2-his protein (ACCESSION NO.: NP_002344.2, AA 1-274) was used as a mobile phase, and its concentration was 60 nM. The binding time was 300 s and the dissociation time was 300 s. When the assay was finished, data from which the response value of blank control had been deducted were fitted to a 1:1 Langmuir binding model using software, and then kinetic constants for antigen-antibody binding were calculated.

Work on B2 yielded a Kd of 0.176 nM.

target: T1, recombinant human Trop-2-his protein …; assay: BLI, antibody on AHC sensor, Trop-2-his 60 nM; remark: another data set of the same source
Experimental: as §1
Affinities of the antibodies obtained from the combinations of mutants of murine antibody 11-4, chimeric antibody ch11-4 and control antibody Sacituzumab to recombinant human Trop-2-his protein were determined by ForteBio (Table 11).

In order of rising Kd:
1. B10  0.21 nM
2. B8  0.231 nM
3. B11  0.238 nM
4. B9  0.254 nM
5. B2  0.264 nM
6. B5  0.352 nM
7. B6  0.389 nM
8. B7  0.394 nM

target: T2, human Trop-2 on the surface of cells …; assay: cell-based or functional assay

In order of rising “Internalization percentage (%), 1 h, BxPC-3 cells, FACS” value:
1. B2  -2%
2. B3  1.12%
3. B1  16.2%

In order of rising “Internalization percentage (%), 3 h, BxPC-3 cells, FACS” value:
1. B2  -7.4%
2. B3  -5.13%
3. B1  21.1%

In order of falling “Internalization percentage (%), 5 h, BxPC-3 cells, FACS” value:
1. B1  27.1%
2. B3  -8.48%
3. B2  -9.38%

target: T2, human Trop-2 on the surface of cells …; assay: cell-based or functional assay; remark: another data set of the same source

With B2 the “Internalization percentage, 1 h, BXPC-3 cells, FACS” value was 15.5%.

target: T2, human Trop-2 on the surface of cells …; assay: FACS, CHO/Trop-2 cells
Experimental: Suspensions of CHO cells recombinantly expressing human Trop-2 (CHO/Trop-2 cells) were incubated with chimeric antibodies ch3-11, ch4-3, ch17-1, ch11-4, and ch23-12 (dilutions at concentrations of 30 μg/ml and 10 μg/ml, and serial dilutions of 9 concentrations obtained through 3-fold serially diluting a solution with an initial concentration of 5 μg/ml, 11 concentrations in total) for 30 min at 37° C. Controls as follows were set: (1) Positive Control (PC): control antibody Sacituzumab; (2) Negative Control (NC): IgG1 isotype control antibody NC-IgG1. The cells were washed 3 times with PBS, and 1:100 dilution of goat anti-human IgG-FITC (Cat.: F9512, Sigma) was added into the cell which then were incubated for 30 min. Then the cells were washed 3 times with PBS again, and the Mean Fluorescence Intensity (MFI) of the cells was measured by a flow cytometer (model B49007AD, SNAW31211, BECKMAN COULTER) to detect binding ability of the chimeric antibodies to human Trop-2 on the surface of CHO cells.

In order of falling EC50:
1. B4  2.92 nM
2. B1  2.75 nM
3. B2  1.15 nM
4. B3  0.993 nM
